Series [1] concerns the target T1, dsr3510ΔC-term (Liquorilactobacillus nagelii, UniProt A0A3Q8CN51).
T1 construct: gene BSQ50_03510
As to the kind of experiment: Michaelis-Menten fit, released fructose (D-fructose/D-glucose assay kit). The class given is biochemical. Conditions: pH 5.0, 30 °C, 0.05 M sodium acetate, 1 mM CaCl2; crude enzyme extract, 2500 µg/mL protein. An excerpt: Michaelis-Menten fit, released fructose (D-fructose/D-glucose assay kit) on dsr3510ΔC-term

Substrate in series [2]: OC[C@H]1O[C@@](CO)(O[C@H]2O[C@H](CO)[C@@H](O)[C@H](O)[C@H]2O)[C@@H](O)[C@@H]1O
Described as above. The series is classed as biochemical, Liquorilactobacillus nagelii. Conditions: pH 5.0, 30 °C, 0.05 M sodium acetate, 1 mM CaCl2, crude enzyme extract, 500 µg/mL protein. The source says: Michaelis-Menten fit, released fructose (D-fructose/D-glucose assay kit) on dsr3510 (full-length L. nagelii TMW 1.1827 dextransucrase)

Experimental findings from publication PMC8954249, “The C-Terminal Domain of Liquorilactobacillus nagelii Dextransucrase Mediates the Production of Larger Dextrans Compared to Liquorilactobacillus hordei” (Gels, 2022) are described below.

Broadly, the Km is the substrate concentration at which the rate is half of its maximum. Usually Vmax stands for the top rate of the reaction or transport when substrate is in excess.

For `OC[C@H]1O[C@@](CO)(O[C@H]2O[C@H](CO)[C@@H](O)[C@H](O)[C@H]2O)[C@@H](O)[C@@H]1O` [sucrose], the Km in series [1] came out at 12.6 ± 0.73 mM.

B1: dsr3510 (full-length L. nagelii TMW 1.1827 dextransucrase) (Liquorilactobacillus nagelii) (protein)
chain: NVKISADSTPQNVVEQSSSSNDSSSNSSSSSKTSSSSKVNTDQVNEDTSSSITKENNISAMPKKQTQLTTATTAADKVTQTTDTSATTTAATNQQKNNQVESSSQSSSEQASSTISNNTTVSNTDSQQSSSQVANVTGGKYVDSNETWSYVDSQGNKIKGLNKVDGNLQYFDETSGAQIKGEYEKVGETTYYFDKNSGNAIPYTLTSDGKTTAYQADGQPAGAGFFTNQDGEIYYFDADGSYKTGLQTLNGTTYYFDSNGYLSKDTVENVDGKTYYSQADTGKTIQLTSQNLPTQTSTAKEVASFAAHNVAYSYDTKSFENINGYLTADSWYRPTYILNDGQLWIKSTSTDFRPLLMAWWPSKSIEADYLNYMIEQGIISSTRNFSANDDSLVLNSAAQNVQIALEKNLTMTGSVNWLRQIMQSFVKKEAIWNKTSEDPSSDGLSSLQGGFLTYQNSKLTPNANSDYRILGYVPSYIKNSNDKGSEFLLANDIDNSNPVVQAEELNWLYYLMNFGSITADDSSANFDGIRVDAVDNVDADLLKIAADYFKDAYQVNQNDQNADSHLSILEDWSNNDPQYVYDQGANQLTMDDYFVGQMNYSLENAPGSNSKMERFVQWYLINRANDSTEDTAIPNYTFVRAHDSNSQDQIQKAIQAATGGEYGVFTWEQLQQGLTLYYADQASTEKKYNRYNIPSAYAMLLTNKDTVPRVYYGDLYLEGGQYMANKTIYYDTITNLLASRVKYVAGGQTMSVDGNDVLTSVRFGKGAMTASDQGTSETRTEGVGVIVSNNTSLKLKDGDQVVLHMGVAHRNQAYRAAVLTTKDGIINYTSDDNAPIAYTDNNGDLVFTNQNLLINGVEEANTSIQGYANPDVTGYLAVWVPVGAATTQDARTAATTDSSTDGKTLHSNAALDSNVIYEGFSNFISYPDSHDDNTNVVIAKNTDLFKALGITSFELAPQYRTSGDKTFLDSTIDNGYAFTDRYDLGYGTPTKYGTVDDLRNVIKALHAAGIQAIADWVPDQIYNLPTEELVTVNRTDERGNQVASSKIHDLLYVANTIGGGDYQKKYGGAFLEVLETEYPDLFKEIQASTGKTIDPSQKITSWSAEYFNGTNILGRGSDYVLRSDDNQQYFYVGDDSSEVQKFLPASLVAENDRQKYSLGDQSANNYFVQENLNGKWYLIDPLNNQKQTGFQYIPDQIKTVYYNAQGEMQYGQQFLGGHWYLFDSRTGAMETGLQYIGNQHKTVYYNVQGQMQYGQQNVNGHWYLFDSKTGAMKTGWQYISNQHKTVYYNTQGQMQYGQQNVNGHWYLFDSKTGAMKTGWQYISDQHKTVYYNGQGQMQYGQQNVNGHWYLFDSKTGAMKTGWQYISNQHKTVYYNSQGQMVYGKQVIAGKTYYFDTKTGRKL
Turning to B1, in series [2], the Km is reported as 10.97 ± 1.56 mM and the Vmax turned out to be 200 µM/min.
